For the assay, the target named is R-Ras or R-Ras(38V). The assay can be described thus: co-IP.

With “Raf-1 kinase, baculovirus-produced (from UniProt P04049 1-648) (enzyme)”, the percent of total Raf co-immunoprecipitated lay in the range of 10 to 20%.

The values above are taken from PMC2120494.
